Assay results published in IntAct's records for PubMed 15618422.

B1: BTB/POZ and MATH domain-containing protein 1 (Arabidopsis thaliana (Mouse-ear cress)), Q8L765 (parent)
chain: MGTTRVCSEVSSGSSKSLSQSLTVSTSTTETVNGFHEFKICGYSLAKGVGVGKYVASDTFMVGGYSWAIYFYPDGKSPEDNSSYVSLFIALASEGADVRALFELTLVDQSGNGKHKVHSHFGRALDSGPYTLKYRGSMWGYKRFFRRSSLESSDYLKENSLLVRCRVGVVKSVTEGPRYYNIPVPVSNLGQQLGNLLESGKGCDVVFQVDGETFNAHKLVLATRSPVFNAQLFGPLGDRNTKCITIEDMEAPIFKVLLHFIYWDELPDMQELIGTDSTLASTLVAQHLLAAADRYALERLKAICESKLCEGVAINTVATTLALAEQHHCLQLKAVCLKFVALPENLKAVMQTDGFDYLKESCPSLLTELLQYVARLSEHSVIVSGHRKEIFADGCDASGRRVKPRLH
partner: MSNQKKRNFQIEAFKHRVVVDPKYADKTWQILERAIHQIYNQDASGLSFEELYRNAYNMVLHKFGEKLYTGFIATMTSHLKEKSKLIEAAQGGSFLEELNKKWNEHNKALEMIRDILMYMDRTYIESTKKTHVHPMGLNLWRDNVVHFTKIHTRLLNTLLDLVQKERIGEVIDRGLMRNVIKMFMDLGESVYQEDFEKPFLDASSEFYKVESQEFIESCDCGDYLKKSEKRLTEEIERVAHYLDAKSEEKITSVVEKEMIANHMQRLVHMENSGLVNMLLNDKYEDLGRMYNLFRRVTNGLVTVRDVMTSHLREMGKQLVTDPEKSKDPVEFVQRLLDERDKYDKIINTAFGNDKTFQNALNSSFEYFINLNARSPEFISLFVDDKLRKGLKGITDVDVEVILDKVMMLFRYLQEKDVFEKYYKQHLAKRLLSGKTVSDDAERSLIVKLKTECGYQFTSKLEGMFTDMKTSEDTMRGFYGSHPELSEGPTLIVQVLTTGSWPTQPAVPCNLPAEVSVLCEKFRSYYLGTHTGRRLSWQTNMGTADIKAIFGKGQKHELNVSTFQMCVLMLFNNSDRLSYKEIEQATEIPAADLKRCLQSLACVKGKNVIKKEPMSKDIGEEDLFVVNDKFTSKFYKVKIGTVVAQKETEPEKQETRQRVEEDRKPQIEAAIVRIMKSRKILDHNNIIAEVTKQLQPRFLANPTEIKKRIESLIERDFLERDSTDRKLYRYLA
B2: Cullin-3A (Arabidopsis thaliana (Mouse-ear cress)), Q9ZVH4 (parent)
chain: B1 partner
partner: B1 chain

Variants of: B1
Conditions: with cul3a_arath CUL3A, Q9ZVH4

| Variant | effect of a mutation on the interaction |
| --- | --- |
| Y295A | decreasing interaction |
| D204A | decreasing interaction |
| D293A | decreasing interaction |

Variants of: B2
Conditions: with bpm1_arath BPM1, Q8L765

| Variant | effect of a mutation on the interaction |
| --- | --- |
| S48A;F49A | decreasing interaction |
